Columns and labels:
[1] = target: T1, recombinant mouse MERTK (mouse, UniProt Q60805 23-496, limits assumed); assay: biolayer interferometry, M19 loaded on AMQ sensor, msMer analyte from 5 nM in 2-fold dilutions, 1:1 model, global fit
T1 construct: Analyte in solution in biolayer interferometry; also called msMer; murine MERTK
T1 sequence (looked up): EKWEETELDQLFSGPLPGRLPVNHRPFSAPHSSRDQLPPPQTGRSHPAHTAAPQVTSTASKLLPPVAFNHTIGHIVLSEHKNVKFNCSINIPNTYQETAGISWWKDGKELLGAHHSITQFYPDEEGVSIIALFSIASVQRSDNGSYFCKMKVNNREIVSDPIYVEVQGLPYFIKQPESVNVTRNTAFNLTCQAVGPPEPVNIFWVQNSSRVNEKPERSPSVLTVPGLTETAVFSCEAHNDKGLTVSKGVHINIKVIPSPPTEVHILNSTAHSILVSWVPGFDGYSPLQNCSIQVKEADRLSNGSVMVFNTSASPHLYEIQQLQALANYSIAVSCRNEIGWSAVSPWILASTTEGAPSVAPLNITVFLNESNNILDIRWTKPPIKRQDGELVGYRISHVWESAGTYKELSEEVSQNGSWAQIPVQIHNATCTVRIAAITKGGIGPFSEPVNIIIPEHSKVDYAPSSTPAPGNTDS
Method: (§1) FIG. 8: M19 binds to murine MERTK with high affinity. A diagram showing antibody binding kinetics for M19 (Mer-M19) against murine MERTK (msMer) using biolayer interferometry. Purified M19 was loaded on an AMQ sensor at a concentration of 1 microgram/mL to test binding against analytes in solution. All analytes were prepared at 5 nM with a 2-fold dilution series for a total of 7 concentrations. Kinetic fits were calculated using a 1:1 model, with Local fits for each concentration as well as an overall Global fit.

[2] = target: T2, recombinant human MERTK (human, UniProt Q12866 21-505, limits assumed); assay: biolayer interferometry, M19 loaded on AMQ sensor at 1 ug/mL, hMer in solution at 5 nM, local 1:1 fit
T2 construct: Analyte in solution in biolayer interferometry; also called hMer
T2 sequence: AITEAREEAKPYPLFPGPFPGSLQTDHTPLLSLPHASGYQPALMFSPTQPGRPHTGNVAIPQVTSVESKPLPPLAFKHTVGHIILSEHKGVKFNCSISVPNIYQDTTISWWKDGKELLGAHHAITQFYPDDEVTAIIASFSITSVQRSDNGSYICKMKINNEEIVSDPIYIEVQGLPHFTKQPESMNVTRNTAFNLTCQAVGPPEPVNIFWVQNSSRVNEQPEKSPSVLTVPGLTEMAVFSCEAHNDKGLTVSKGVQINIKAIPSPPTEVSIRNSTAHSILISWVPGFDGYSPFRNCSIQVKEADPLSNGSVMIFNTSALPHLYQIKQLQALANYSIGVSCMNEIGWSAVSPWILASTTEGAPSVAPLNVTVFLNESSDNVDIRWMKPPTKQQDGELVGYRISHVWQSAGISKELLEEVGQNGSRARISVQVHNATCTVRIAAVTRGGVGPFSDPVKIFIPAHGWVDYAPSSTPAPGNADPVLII
Method: as §1, with “7:” for “8:”, “human” for “murine”, “(hMer)” for “(msMer)”, “global” for “Global”
(§2) To characterize the binding affinity of M19 antibody against recombinant human and mouse MERTK, biomolecular interaction analysis was performed using biolayer interferometry (FIG. 7 and FIG. 8). Binding was observed between M19 and both mouse and human MERTK.

[3] = target: T2, recombinant human MERTK; assay: biolayer interferometry, M19 loaded on AMQ sensor at 1 ug/mL, hMer in solution at 0.1563 nM, local 1:1 fit
Method: as §1, with “7:” for “8:”, “human” for “murine”, “(hMer)” for “(msMer)”, “global” for “Global”
as §2

[4] = target: T2, recombinant human MERTK; assay: biolayer interferometry, M19 loaded on AMQ sensor at 1 ug/mL, hMer in solution at 0.0781 nM, local 1:1 fit
Method: as §1, with “7:” for “8:”, “human” for “murine”, “(hMer)” for “(msMer)”, “global” for “Global”
as §2

[5] = target: T2, recombinant human MERTK; assay: biolayer interferometry, global fit; human MERTK
Method: as §1, with “7:” for “8:”, “human” for “murine”, “(hMer)” for “(msMer)”, “global” for “Global”

[6] = target: T2, recombinant human MERTK; assay: biolayer interferometry, M19 loaded on AMQ sensor at 1 ug/mL, hMer in solution at 2.5 nM, local 1:1 fit
Method: as §1, with “7:” for “8:”, “human” for “murine”, “(hMer)” for “(msMer)”, “global” for “Global”
as §2

[7] = target: T1, recombinant mouse MERTK; assay: biolayer interferometry, M19 loaded on AMQ sensor at 1 ug/mL, msMer in solution at 0.1563 nM, local 1:1 fit
Method: as §1, §2

[8] = target: T2, recombinant human MERTK; assay: biolayer interferometry, M19 loaded on AMQ sensor, hMer analyte from 5 nM in 2-fold dilutions, 1:1 model, global fit
Method: as §1, with “7:” for “8:”, “human” for “murine”, “(hMer)” for “(msMer)”, “global” for “Global”

[9] = target: T1, recombinant mouse MERTK; assay: biolayer interferometry, M19 loaded on AMQ sensor at 1 ug/mL, msMer in solution at 0.3125 nM, local 1:1 fit
Method: as §1, §2

[10] = target: T2, recombinant human MERTK; assay: biolayer interferometry, M19 loaded on AMQ sensor at 1 ug/mL, hMer in solution at 1.25 nM, local 1:1 fit
Method: as §1, with “7:” for “8:”, “human” for “murine”, “(hMer)” for “(msMer)”, “global” for “Global”
as §2

[11] = target: T1, recombinant mouse MERTK; assay: biolayer interferometry, M19 loaded on AMQ sensor at 1 ug/mL, msMer in solution at 5 to 0.0781 nM, global 1:1 fit
Method: as §1, §2

Kd [1]: 0.305 nM | Kd [2]: 0.246 nM | koff [2]: 0.000951 s⁻¹ | kon [2]: 3.86e+06 M⁻¹ s⁻¹ | Kd [3]: 0.621 nM | koff [3]: 0.000949 s⁻¹ | kon [3]: 1.53e+06 M⁻¹ s⁻¹ | Kd [4]: 0.0765 nM | koff [4]: 0.000934 s⁻¹ | kon [4]: 1.22e+07 M⁻¹ s⁻¹ | Kd [5]: ~0.3 nM | Kd [6]: 0.339 nM | koff [6]: 0.000899 s⁻¹ | kon [6]: 2.65e+06 M⁻¹ s⁻¹ | Kd [7]: 0.117 nM | koff [7]: 0.00129 s⁻¹ | kon [7]: 1.1e+07 M⁻¹ s⁻¹ | Kd [8]: 0.326 nM | Kd [9]: 0.115 nM | koff [9]: 0.00106 s⁻¹ | kon [9]: 9.23e+06 M⁻¹ s⁻¹ | Kd [10]: 0.297 nM | koff [10]: 0.00102 s⁻¹ | kon [10]: 3.44e+06 M⁻¹ s⁻¹ | koff [11]: 0.00144 s⁻¹ | kon [11]: 4.71e+06 M⁻¹ s⁻¹
B1: monoclonal antibody M19 (antibody, V domains shown)
VH: EVQLEESGPDLKKPGETVKISCKASNYTFTDYSMHWVKQAPGKGLKWVGWINTDTGEPTYADDFKGRFAFSLETSASTAYLQINNLKNEDTATYFCARWFGAMDYWGQGTSVTVSS
VL: DIVITQSHKFMSTSVGDRVSITCKASQDVTNVVAWYQQKPGQSPKLLIYSASYRYTGVPDRFTGSGSGTDFTFTISSVQAEDLAVYYCQQYYRTPRTFGGGTKLEIKR
notes: Mouse hybridoma monoclonal antibody; Hybridoma supernatant was used in the ELISA screen, purified antibody in biolayer interferometry; also called Mer-M19

Reference: patent US20200255543A1 (ROCKEFELLER UNIVERSITY, published 2020)
